Experimental data from patent publication US8735341.

Test system: TAT-mMDH-eGFP fusion protein

Substance: mitochondrial processing peptidases in the matrix contents of rat liver mitochondria
- cleavage of the mMDH signal sequence after incubation with mitochondrial matrix contents (gel): The matrix signal peptidase progressively cleaved the mMDH signal sequence at two sites yielding two cleavage products of an estimated molecular mass of 32 kDa and 28.9 kDa
